Entries after “also recorded” stand apart in the source; their conditions may differ. Non-standard residues stand in square brackets, D forms with d. No end group written: not given here.
How the values were obtained:
[1] = system: transgenic AD mice; details: oral administration with drinking water; cited from earlier work
[2] = target: T1, amyloid beta oligomers (Homo sapiens, UniProt P05067); test: SPR binding kinetics, single-cycle, heterogeneous binding model (FIG. 3)
T1 construct: 1 mg lyophilized Aß1-42 and N-terminal biotinylated Aß1-42; biotin (only on part of the peptide molecules)
T1 sequence (P05067 672-713): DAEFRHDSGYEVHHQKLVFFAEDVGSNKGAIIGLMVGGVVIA
Experimental: (§1) 1 mg lyophilized Aß1-42 and N-terminal biotinylated Aß1-42 were each dissolved in 1 ml 100% hexafluoroisopropanol (HFIP) and dissolved overnight at room temperature. For the oligomer and fibril preparation, non-biotinylated Aß was used with N-terminal biotinylated Aß at a ratio of 1:10 and the HFIP was evaporated (Concentrator 5301 from Eppendorf). The resultant Aß film, at a final concentration of 80 μM, was placed in sodium phosphate buffer (10 mM, pH 7.4) and incubated (RT, 600 rpm). The incubation time was 3 h for the oligomer preparation, and 24 h for the fibril preparation. 100% N-terminal biotinylated Aß1-42 without incubation was used for the preparation of monomers.
(§2) The density gradient centrifugation was carried out subsequent to the Aß preparation to purify the respective Aß species according to the size of the same. An iodixanol gradient in 10 mM sodium phosphate buffer, pH 7.4 with rising concentrations from 50% to 5% v/v iodixanol was used for this purpose. 100 μl of the Aß sample was applied and separated by way of ultracentrifugation (3 h, 4° C., 259000 g). Subsequently, the gradient was fractionated into 14 fractions, 140 μl each. Monomeric Aß are present in the first two top fractions, Aß oligomers in fractions 4 to 6, and Aß fibrils in fractions 11 to 13.
A T200 from Biacore (GE Healthcare) was used for SPR spectroscopy. The Aß species purified by way of density gradient centrifugation were directly immobilized on a sensor chip (Series S Sensor Chips SA) according to the manufacturer's instructions by way of biotin-streptavidin coupling. 1×PBS was used as the running buffer. Loading took place at 25° C. and a flow rate of 5 μl/min. Subsequently, the flow cells were freed from non-specifically bound ligand overnight at a steady flow of 30 μl/min.
Binding kinetics were likewise measured by way of SPR spectroscopy using a T200 device from Biacore (GE Healthcare). The standard conditions are 25° C. and a flow rate of 30 μl/min. Different lyophilizates of the D peptides were placed in the 1×PBS running buffer and serially diluted. The method used was a “single-cycle” kinetics method, wherein five increasing analyte concentrations were pumped over the immobilized flow cells. The contact times selected, depending on the analyte, were 90 to 120 s for association and dissociation and 1800 to 5400 s for the final dissociation. The sensorgrams were double referenced with the aid of an unloaded flow cell and the running buffer that was used. The binding curves were evaluated by way of kinetic fit models (heterogeneous binding model) using the Biacore T200 evaluation software (version 2.0).
FIGS. 2 to 4 show the results on the binding behavior of the cyclized peptides according to the invention (affinity study). The figures show data for the kinetic evaluation of the binding strength of the various candidates to amyloid beta monomers (FIG. 2), amyloid beta oligomers (FIG. 3), and amyloid beta fibrils (FIG. 4). The two binding constants that result when fitting a heterogeneous binding model are shown in each case, plotted as white bars and black bars. It is important to remember that a logarithmic scale is shown here, which means that minor differences in the bar size represent major differences in the dissociation constant KD. White bars are the respective low-affinity sites and the binding strengths thereof, and black bars show the high-affinity binding sites and the binding strengths thereof. […]

[3] = target: T2, amyloid beta fibrils (Homo sapiens, UniProt P05067); test: SPR binding kinetics, single-cycle, heterogeneous binding model (FIG. 4); details: 25° C., high-affinity site
T2 construct: 1 mg lyophilized Aß1-42 and N-terminal biotinylated Aß1-42; biotin (only on part of the peptide molecules)
T2 sequence (P05067 672-713): as above
Experimental: as §1
as §2, with “Subsequently, the gradient was fractionated into 14 fractions, 140 μl each. Monomeric Aß are present in the first two top fractions, Aß oligomers in fractions 4 to 6, and Aß fibrils in fractions 11 to 13.” left out
(§3) Binding kinetics were likewise measured by way of SPR spectroscopy using a T200 device from Biacore (GE Healthcare). […] The binding curves were evaluated by way of kinetic fit models (heterogeneous binding model) using the Biacore T200 evaluation software (version 2.0). […]

[4] = system: APPsDI mice; test: Morris water maze (MWW) test, spatial memory (FIG. 5); type: in vivo; details: five consecutive days, compared to saline
Experimental: The test measures the spatial memory of animals, which here were genetically engineered APPsDI mice.
The time is measured in seconds that an animal requires to locate a platform hidden closely beneath the water surface in a water tank. This is measured in several experiments per day on several consecutive days. […] The search time is plotted in seconds on five consecutive days for mice that were treated with the peptide according to the invention cD3R (SEQ ID NO. 5), compared to placebo experiments (saline).

[5] = target: T3, amyloid beta monomers (Homo sapiens, UniProt P05067); test: SPR binding kinetics, single-cycle, heterogeneous binding model (FIG. 2); details: 25° C., high-affinity site
T3 construct: 100% N-terminal biotinylated Aß1-42 without incubation
T3 sequence (P05067 672-713): as above
Experimental: as §1
as §2, with “Subsequently, the gradient was fractionated into 14 fractions, 140 μl each. Monomeric Aß are present in the first two top fractions, Aß oligomers in fractions 4 to 6, and Aß fibrils in fractions 11 to 13.” left out
as §3

[6] = target: T4, A beta oligomers (Homo sapiens, UniProt P05067); test: Density gradient centrifugation fractions treated with peptide, A beta size distribution (FIG. 1); type: biochemical; details: fractions 4 to 8 (or 4 to 10) of density gradient; peptide 20 μM; versus control and linear D3
T4 construct: approximately 20 nM or 1.8 ng Aß 1-42
T4 sequence (P05067 672-713): as above
Experimental: (§4) Thereafter, the resultant fractions are treated with and without an active ingredient and determined by way of RP-HPLC, for example. In this way, it is possible to determine the effectiveness of the active ingredient.
(§5) A further method is described hereafter. The so-called QIAD (quantitative determination of interference with Aß aggregate size distribution) test can be used for the quantitative analysis of active ingredients. The method for quantitatively analyzing the influence of an active ingredient on the particle size distribution of amyloid peptides and/or proteins in a sample comprises the following steps. […] This change is established quantitatively. […] Finally, the concentration of A beta in the respective fraction is determined by completely denaturing the A beta species during a reverse phase (RP-)HPLC carried out subsequent to the fractionating. […] Eluting A beta is detected by way of UV absorption at 215 nm. […] Depending on the fraction, the mean value from multiple, for example six, experiments conducted independently of one another can be calculated with the resulting standard deviation. The advantage of HPLC analysis is that detection is very sensitive (such as approximately 20 nM or 1.8 ng Aß 1-42) and quantification is reliable independently of the state of aggregation and the solvent. […]

[7] = target: T5, A beta monomer (Homo sapiens, UniProt P05067); test: as above; type: biochemical; details: fractions 1 to 2 of density gradient
T5 construct: approximately 20 nM or 1.8 ng Aß 1-42
T5 sequence (P05067 672-713): as above
Experimental: as §4, §5

## rprtrlhthrnr ([dR][dP][dR][dT][dR][dL][dH][dT][dH][dR][dN][dR]) [D3, D-enantiomeric linear peptide known from WO 02/081505 A2]
[1]
  cognitive abilities of treated mice: significantly improved cognitive abilities
  plaque in treated mice: considerably less plaque
[2]; fit of SPR binding data
  binding sites bound on amyloid beta oligomer: binds only a low-affinity site, but not a high-affinity site

## rprtrlhthrnrr (cyclo([dR][dP][dR][dT][dR][dL][dH][dT][dH][dR][dN][dR][dR])) [cD3r]
[3]
  KD (kinetics), binding strength to amyloid beta fibrils: does very well
[4]
  learning (search time to locate hidden platform): significant
[2]; SPR, 25° C., high-affinity site, compared with other cyclized peptides
  KD (kinetics), binding strength to amyloid beta oligomers: binds even more strongly by two orders of magnitude than the other cyclized peptides
[5]
  KD (kinetics), binding affinity to amyloid beta monomers: particularly high affinity

## rkrtrlhthrnr (cyclo([dR][dK][dR][dT][dR][dL][dH][dT][dH][dR][dN][dR])) [cD3P2K]
[3]
  KD (kinetics), binding strength to amyloid beta fibrils: sub-pM binding range

## rprtrlhthrnr (cyclo([dR][dP][dR][dT][dR][dL][dH][dT][dH][dR][dN][dR]); SMILES CC(C)C[C@H]1NC(=O)[C@@H](CCCNC(=N)N)NC(=O)[C@@H]([C@H](C)O)NC(=O)[C@@H](CCCNC(=N)N)NC(=O)[C@H]2CCCN2C(=O)[C@@H](CCCNC(=N)N)NC(=O)[C@@H](CCCNC(=N)N)NC(=O)[C@@H](CC(N)=O)NC(=O)[C@@H](CCCNC(=N)N)NC(=O)[C@@H](Cc2c[nH]cn2)NC(=O)[C@@H]([C@H](C)O)NC(=O)[C@@H](Cc2c[nH]cn2)NC1=O) [cD3, cyclized D3, N-terminal amino group and C-terminal carboxyl group coupled by an amide bond]
[6]
  elimination / decrease of A beta oligomer concentration: eliminates the oligomers in fractions 4 to 8 even more efficiently than linear D3; also recorded: clear decrease in the A beta oligomer concentration
[7]
  influence on the A beta monomer concentration: no influence
[2]; from Rmax 79/21%
  number of low-affinity sites relative to high-affinity sites: approximately 4 times
[2]; high-affinity site (KD2)
  Rmax, contribution of high-affinity site (KD2) to RU total loading: 21%
[2]; low-affinity site (white bar)
  Rmax, contribution of low-affinity site to RU total loading: 79%

From patent US10428127B2, “Cyclic, amyloid beta-binding peptides and the use thereof” (FORSCHUNGSZENTRUM JUELICH GMBH, priority 2013, dated 2019)
